The text below walks through data of publication PMC3337772.

As usually defined, the Km is the substrate concentration at which the rate is half of its maximum.

Substrate in this data set: NCCc1ccc(O)c(O)c1
Briefly: [3H]DA uptake kinetics. The class given is cell-based, Rattus norvegicus.

B1: dopamine transporter (DAT; rDAT) (Rattus norvegicus) (protein)
chain: MSKSKCSVGPMSSVVAPAKESNAVGPREVELILVKEQNGVQLTNSTLINPPQTPVEAQERETWSKKIDFLLSVIGFAVDLANVWRFPYLCYKNGGGAFLVPYLLFMVIAGMPLFYMELALGQFNREGAAGVWKICPVLKGVGFTVILISFYVGFFYNVIIAWALHYFFSSFTMDLPWIHCNNTWNSPNCSDAHASNSSDGLGLNDTFGTTPAAEYFERGVLHLHQSRGIDDLGPPRWQLTACLVLVIVLLYFSLWKGVKTSGKVVWITATMPYVVLTALLLRGVTLPGAMDGIRAYLSVDFYRLCEASVWIDAATQVCFSLGVGFGVLIAFSSYNKFTNNCYRDAIITTSINSLTSFSSGFVVFSFLGYMAQKHNVPIRDVATDGPGLIFIIYPEAIATLPLSSAWAAVFFLMLLTLGIDSAMGGMESVITGLVDEFQLLHRHRELFTLGIVLATFLLSLFCVTNGGIYVFTLLDHFAAGTSILFGVLIEAIGVAWFYGVQQFSDDIKQMTGQRPNLYWRLCWKLVSPCFLLYVVVVSIVTFRPPHYGAYIFPDWANALGWIIATSSMAMVPIYATYKFCSLPGSFREKLAYAITPEKDHQLVDRGEVRQFTLRHWLLL
For B1, the Km came out at 1.50 ± 0.10 µM.
